Consider 19 substances from IntAct's records for PubMed 20608975.

The target in one assay is mmp14_human MMP14 (UniProt P50281).
Assay [1] concerns the target gors2_rat Gorasp2 (UniProt Q9R064).
Assay [2] has the same target. The source holds these as a separate data set.
Assay [3] has the same target. This is another data set of the same source.
For assay [4] the target is unchanged. This is another data set of the same source.
Assay [5] has the same target. This is another data set of the same source.
For assay [6] the target is unchanged. The source holds these as a separate data set.

“Golgi reassembly-stacking protein 2 (Rattus norvegicus (Rat)) (from UniProt Q9R064) G2A”: the “effect of a mutation on the interaction” value with mmp14_human MMP14 was “disrupting interaction”.

Regarding “Matrix metalloproteinase-14 (Homo sapiens) (from UniProt P50281) C574A”, the “effect of a mutation on the interaction” value in the assay with gors2_rat Gorasp2 [1] is recorded as “decreasing interaction”.

Consider “Matrix metalloproteinase-14 (Homo sapiens) (from UniProt P50281) G566A”, for which the “effect of a mutation on the interaction” value with gors2_rat Gorasp2 [2] is given as “decreasing interaction”.

For the substance “Matrix metalloproteinase-14 (Homo sapiens) (from UniProt P50281) H565A”, in the assay with gors2_rat Gorasp2 [2], the “effect of a mutation on the interaction” value was “decreasing interaction”.

Regarding “Matrix metalloproteinase-14 (Homo sapiens) (from UniProt P50281) L571A”, the “effect of a mutation on the interaction” value with gors2_rat Gorasp2 [3] was “disrupting interaction”.

For “Matrix metalloproteinase-14 (Homo sapiens) (from UniProt P50281) L572A”, the “effect of a mutation on the interaction” value with gors2_rat Gorasp2 [3] is given as “disrupting interaction”.

On to “Matrix metalloproteinase-14 (Homo sapiens) (from UniProt P50281) L578A”, for which the “effect of a mutation on the interaction” value with gors2_rat Gorasp2 [4] is “decreasing interaction”.

With “Matrix metalloproteinase-14 (Homo sapiens) (from UniProt P50281) L579A”, in the assay with gors2_rat Gorasp2 [4], the “effect of a mutation on the interaction” value is listed as “decreasing interaction”.

Turning to “Matrix metalloproteinase-14 (Homo sapiens) (from UniProt P50281) P568A”, in the assay with gors2_rat Gorasp2 [5], the “effect of a mutation on the interaction” value is listed as “decreasing interaction”.

Consider “Matrix metalloproteinase-14 (Homo sapiens) (from UniProt P50281) Q575A”, for which the “effect of a mutation on the interaction” value with gors2_rat Gorasp2 [1] is on record as “decreasing interaction”.

In the case of “Matrix metalloproteinase-14 (Homo sapiens) (from UniProt P50281) R569A”, the “effect of a mutation on the interaction” value with gors2_rat Gorasp2 [5] is “decreasing interaction”.

“Matrix metalloproteinase-14 (Homo sapiens) (from UniProt P50281) R570A”: the “effect of a mutation on the interaction” value with gors2_rat Gorasp2 [5] was “decreasing interaction”.

With “Matrix metalloproteinase-14 (Homo sapiens) (from UniProt P50281) R576A”, the “effect of a mutation on the interaction” value with gors2_rat Gorasp2 [1] is reported as “decreasing interaction”.

Consider “Matrix metalloproteinase-14 (Homo sapiens) (from UniProt P50281) S577A”, for which the “effect of a mutation on the interaction” value in the assay with gors2_rat Gorasp2 [4] is given as “decreasing interaction”.

As for “Matrix metalloproteinase-14 (Homo sapiens) (from UniProt P50281) T567A”, the “effect of a mutation on the interaction” value with gors2_rat Gorasp2 [2] is given as “decreasing interaction”.

With “Matrix metalloproteinase-14 (Homo sapiens) (from UniProt P50281) Y573A”, the “effect of a mutation on the interaction” value with gors2_rat Gorasp2 [3] is recorded as “disrupting interaction”.

As to “Matrix metalloproteinase-15 (Homo sapiens), P51511 L658A”, the “effect of a mutation on the interaction” value with gors2_rat Gorasp2 [6] is recorded as “decreasing interaction”.

For the substance “Matrix metalloproteinase-15 (Homo sapiens), P51511 L659A”, in the assay with gors2_rat Gorasp2 [6], the “effect of a mutation on the interaction” value is listed as “decreasing interaction”.

“Matrix metalloproteinase-15 (Homo sapiens), P51511 Y660A”: the “effect of a mutation on the interaction” value in the assay with gors2_rat Gorasp2 [6] is on record as “decreasing interaction”.
